Measured values from patent US20230227527A1 (published 2023).

T1: EBV LMP2 peptide on HLA-A*02:01 (human)
T1 peptide: CLGGLLTMV

T2: peptide on HLA-A*02:01 (human)
T2 peptide: SLGGLLTMV


Experiments:
[1] = molecular target: EBV LMP2 peptide on HLA-A11 (human); experiment: intracellular IFN-gamma; peptide titration on K562-A11, E:T 1:1, overnight; FIG. 9; full-length, on cells; details: chains Valpha:Vbeta
[2] = molecular target: T1, EBV LMP2 peptide on HLA-A*02:01; experiment: intracellular IFN-gamma; peptide titration on APCs, E:T 1:1, overnight; FIG. 6F; full-length, on cells
peptide on HLA-A*02:01 [3] = molecular target: T2, peptide on HLA-A*02:01; experiment: as above
[4] = molecular target: T1, EBV LMP2 peptide on HLA-A*02:01; experiment: intracellular IFN-gamma; peptide titration on APCs, E:T 1:1, overnight; a different experiment, FIG. 6G; full-length, on cells
peptide on HLA-A*02:01 [5] = molecular target: T2, peptide on HLA-A*02:01; experiment: as above

Binder | EC50 of peptide [1] [nM] | EC50 of peptide [2] [mg/L] | EC50 of peptide (peptide on HLA-A*02:01 [3]) [mg/L] | EC50 of peptide [4] [mg/L] | EC50 of peptide (peptide on HLA-A*02:01 [5]) [mg/L]
L11-3 (protein) chain 1: GQQVMQIPQYQHVQEGEDFTTYCNSSTTLSNIQWYKQRPGGHPVFLIQLVKSGEVKKQKRLTFQFGEAKKNSSLHITATQTTDVGTYFCADPDGLIFGQGTELSVKP chain 2: DAGVIQSPRHEVTEMGQEVTLRCKPISGHNSLFWYRQTMMRGLELLIYFNNNVPIDDSGMPEDRFSAKMPNASFSTLKIQPSEPRDSAVYFCASSLGAGAGYGYTFGSGTRLTVV | 0.3 | – | – | – | –
L11-6 (protein) chain 1: GIQVEQSPPDLILQEGANSTLRCNFSDSVNNLQWFHQNPWGQLINLFYIPSGTKQNGRLSATTVATERYSLLYISSSQTTDSGVYFCAVDGGNKLVFGAGTILRVKS chain 2: DAGVIQSPRHEVTEMGQEVTLRCKPISGHNSLFWYRQTMMRGLELLIYFNNNVPIDDSGMPEDRFSAKMPNASFSTLKIQPSEPRDSAVYFCASSLGAGSGWEQYFGPGTRLTVT | 2 | – | – | – | –
L208 (TCR, V domains shown) Valpha: KQEVTQIPAALSVPEGENLVLNCSFTDSAIYNLQWFRQDPGKGLTSLLLIQSSQREQTSGRLNASLDKSSGRSTLYIAASQPGDSATYLCAVLMDSNYQLIWGAGTKLIIKP Vbeta: DAGITQSPRYKITETGRQVTLMCHQTWSHSYMFWYRQDLGHGLRLIYYSAAADITDKGEVPDGYVVSRSKTENFPLTLESATRSQTSVYFCASSEDGMNTEAFFGQGTRLTVV | – | 0.0392 | 0.0183 | 0.261 | 0.125
